Data: patent US20230265151A1, “GIP/GLP1 CO-AGONIST COMPOUNDS” (priority 2020, published 2023)
Where a chain is given by its changes, count along the chain named.

Legend:
[1] = target: T1, human GIP receptor (human) (UniProt P48546); assay: cell-based or functional assay
T1 sequence (looked up): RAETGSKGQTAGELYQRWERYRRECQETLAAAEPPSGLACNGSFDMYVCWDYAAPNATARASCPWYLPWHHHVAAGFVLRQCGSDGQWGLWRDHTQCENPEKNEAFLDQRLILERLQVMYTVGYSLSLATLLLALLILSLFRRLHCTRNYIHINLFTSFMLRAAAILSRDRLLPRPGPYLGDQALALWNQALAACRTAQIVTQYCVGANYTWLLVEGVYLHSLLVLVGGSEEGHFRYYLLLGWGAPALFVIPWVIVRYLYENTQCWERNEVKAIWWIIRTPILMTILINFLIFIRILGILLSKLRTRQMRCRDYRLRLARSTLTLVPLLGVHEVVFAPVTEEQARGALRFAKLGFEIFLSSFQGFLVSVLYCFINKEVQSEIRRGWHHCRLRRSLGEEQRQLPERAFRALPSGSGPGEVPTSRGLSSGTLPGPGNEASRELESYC

hGLP-1R = hGLP-1R (Homo sapiens, UniProt P43220); assay: cell-based or functional assay
[2] = target: human glucagon receptor (human) (UniProt P47871); assay: cell-based or functional assay
human GLP-1 receptor = target: T2, human GLP-1 receptor (human, UniProt P43220 24-463); assay: SPA competition vs [125I]-GLP-1, hGLP-1R membranes
T2 construct: whole, on cells; also called hGLP-1R; human glucagon-like peptide-1 receptor
Description: The binding buffer contains 25 mM HEPES, pH 7.4, 2.5 mM CaCl₂, 1 mM MgCl₂, 0.1% (w/v) bacitracin, 0.003% (w/v) TWEEN®-20, and Roche Complete™ Protease Inhibitors without EDTA.
(§1) Data are analyzed using four-parameter (curve maximum, curve minimum, IC₅₀, Hill slope) nonlinear regression routines (Genedata Screener, version 12.0.4, Genedata AG, Basal, Switzerland). […] Values for Kᵢ are reported as the geometric mean, with error expressed as the standard error of the mean (SEM) and n is equal to the number of independent replicates (determined in assays performed on different days). Geometric Means are calculated as follows: […]

human GIP receptor = target: T3, human GIP receptor (human, UniProt P48546 22-466); assay: SPA competition vs [125I]-GIP, hGIPR membranes
T3 construct: whole, on cells; also called hGIPR; human glucose-dependent insulinotropic polypeptide receptor
T3 sequence (looked up): T1 sequence (looked up)
Description: The binding buffer contains 25 mM HEPES, pH 7.4, 2.5 mM CaCl₂, 1 mM MgCl₂, 0.1% (w/v) bacitracin, 0.003% (w/v) TWEEN®-20, and Roche Complete™ Protease Inhibitors without EDTA. […] Plates are sealed and mixed on a plate shaker (setting 6) for 1 minute and read with a PerkinElmer Trilux MicroBeta® scintillation counter after 2.5 to 12 hours of incubation/settling time at room temperature.
as §1

Chain of hGLP-1R (P43220 24-463): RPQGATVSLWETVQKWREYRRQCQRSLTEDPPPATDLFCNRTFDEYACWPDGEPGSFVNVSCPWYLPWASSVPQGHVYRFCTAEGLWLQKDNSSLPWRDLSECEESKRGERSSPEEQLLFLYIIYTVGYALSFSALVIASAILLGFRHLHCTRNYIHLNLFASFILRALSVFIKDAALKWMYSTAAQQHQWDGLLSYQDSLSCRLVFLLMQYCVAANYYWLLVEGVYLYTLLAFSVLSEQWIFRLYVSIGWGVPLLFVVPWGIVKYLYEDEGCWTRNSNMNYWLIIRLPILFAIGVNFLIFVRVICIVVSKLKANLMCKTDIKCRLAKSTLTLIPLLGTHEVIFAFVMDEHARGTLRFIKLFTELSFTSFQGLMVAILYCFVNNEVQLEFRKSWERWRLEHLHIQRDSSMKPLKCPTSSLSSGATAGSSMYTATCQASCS
Chain of human glucagon receptor (human) (P47871 26-477): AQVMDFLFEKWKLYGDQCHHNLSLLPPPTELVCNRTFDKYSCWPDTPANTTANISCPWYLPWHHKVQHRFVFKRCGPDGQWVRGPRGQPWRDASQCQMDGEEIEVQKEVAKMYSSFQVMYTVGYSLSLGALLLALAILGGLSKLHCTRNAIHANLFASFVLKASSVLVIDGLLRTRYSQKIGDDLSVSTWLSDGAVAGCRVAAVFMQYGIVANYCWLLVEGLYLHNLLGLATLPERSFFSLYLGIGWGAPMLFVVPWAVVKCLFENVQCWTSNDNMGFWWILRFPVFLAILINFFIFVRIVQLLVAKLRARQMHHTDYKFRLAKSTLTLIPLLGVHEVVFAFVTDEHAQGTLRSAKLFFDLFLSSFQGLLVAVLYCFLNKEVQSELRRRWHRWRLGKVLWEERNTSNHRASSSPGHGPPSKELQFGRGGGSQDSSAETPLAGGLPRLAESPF

Molecule: Y-Aib-EGT-αMeF(2F)-TSD-4Pal-SI-αMeL-LD-Orn-IAQ-Aib-EFIK((2-[2-(2-Amino-ethoxy)-ethoxy]-acetyl)2-(γ-Glu)-CO-(CH2)12-CO2H)-αMeY-…((2-[2-(2-Amino-ethoxy)-ethoxyl-acetyl)2-(γ-Glu)-CO-(CH2)12-CO2H)-NH2 (peptide)
- cAMP EC50 (1.0% HSA) [1]: 3.55 nM
- cAMP Emax (1.0% HSA) [1]: 95.9%
- cAMP EC50 (1.0% HSA) (hGLP-1R): 40.1 nM
- cAMP Emax (1.0% HSA) (hGLP-1R): 98.8%
- cAMP EC50 (1.0% HSA) [2]: > 9950 nM

Molecule: Y-Aib-EGT-αMeF(2F)-TSD-4Pal-SI-αMeL-LD-Orn-IAQ-Aib-K((2-[2-(2-Amino-ethoxy)-ethoxy]-acetyl)2-(γ-Glu)-CO-(CH2)12-CO2H)FIK((2-[2-(2-Amino-ethoxy)-ethoxy]-acetyl)2-(γ-Glu)-CO-(CH2)12-CO2H)-αMeY-…-NH2 (peptide)
- cAMP EC50 (1.0% HSA) [1]: 2.32 nM
- cAMP Emax (1.0% HSA) [1]: 86.8%
- cAMP EC50 (1.0% HSA) (hGLP-1R): 18.9 nM
- cAMP Emax (1.0% HSA) (hGLP-1R): 102%
- cAMP EC50 (1.0% HSA) [2]: > 9950 nM

Molecule: Y-Aib-EGT-αMeF(2F)-TSD-4Pal-SI-αMeL-LD-Orn-IAQ-Aib-K((2-[2-(2-Amino-ethoxy)-ethoxy]-acetyl)2-CO-(CH2)12-CO2H)FIK((2-[2-(2-Amino-ethoxy)-ethoxy]-acetyl)2-CO-(CH2)12-CO2H)-αMeY-…-NH2 (peptide)
- cAMP EC50 (1.0% HSA) [1]: 0.866 nM
- cAMP Emax (1.0% HSA) [1]: 86.2%
- cAMP EC50 (1.0% HSA) (hGLP-1R): 13.1 nM
- cAMP Emax (1.0% HSA) (hGLP-1R): 105%
- cAMP EC50 (1.0% HSA) [2]: > 9950 nM

B1: Y-Aib-EGT-αMeF(2F)-TSD-4Pal-SI-αMeL-LD-Orn-K((2-[2-(2-Amino-ethoxy)-ethoxy]-acetyl)-(γ-Glu)-(2-[2-(2-Amino-ethoxy)-ethoxy]-acetyl)-CO-(CH2)12-CO2H)AQ-Aib-EFI-(D … (peptide)
peptide: YXEGTXTSDXSIXLDXKAQXEFIXXLIEGGKSSGAPPPS
modifications: Aib2, αMeF(2F)6, 4Pal10, αMeL13, Orn16, K17(Z1), Aib20, D-Glu24, αMeY25, K31(Z1), C-term NH2; Z1=AEEA-(γ-Glu)-AEEA-CO-(CH2)12-CO2H
- Ki (human GLP-1 receptor): 2.5 nM
- Ki (human GIP receptor): 0.092 nM

B2: Y-Aib-EGT-αMeF-TSD-4Pal-SI-αMeL-LD-Orn-K((2-[2-(2-Amino-ethoxy)-ethoxy]-acetyl)2-(γ-Glu)-CO-(CH2)12-CO2H)AQ-Aib-EFI-(D-Glu)-αMeY-LIEGGK((2-[2-(2-Amino-ethoxy)-e … (peptide)
peptide: B1 peptide
modifications: Aib2, αMeF6, 4Pal10, αMeL13, Orn16, K17(Z1), Aib20, D-Glu24, αMeY25, K31(Z1), C-term NH2; Z1=AEEA2-(γ-Glu)-CO-(CH2)12-CO2H
- Ki (human GLP-1 receptor): 3.08 nM
- Ki (human GIP receptor): 0.0595 nM

B3: Y-Aib-EGT-αMeF(2F)-TSD-4Pal-SI-αMeL-LD-Orn-K((2-[2-(2-Amino-ethoxy)-ethoxy]-acetyl)2-(γ-Glu)-CO-(CH2)12-CO2H)AQ-Aib-E-3FPhe-I-(D-Glu)-αMeY-LIEGGK((2-[2-(2-Amino … (peptide)
peptide: B1 peptide with F22X
modifications: Aib2, αMeF(2F)6, 4Pal10, αMeL13, Orn16, K17(Z1), Aib20, 3FPhe22, D-Glu24, αMeY25, K31(Z1), C-term NH2; Z1=AEEA2-(γ-Glu)-CO-(CH2)12-CO2H
- Ki (human GLP-1 receptor): 1.52 nM
- Ki (human GIP receptor): 0.161 nM

B4: Y-Aib-EGT-αMeF-TSD-4Pal-SI-αMeF-LD-Orn-K((2-[2-(2-Amino-ethoxy)-ethoxy]-acetyl)2-(γ-Glu)-CO-(CH2)12-CO2H)AQ-Aib-EFI-(D-Glu)-αMeY-LIEGGK((2-[2-(2-Amino-ethoxy)-e … (peptide)
peptide: B1 peptide
modifications: Aib2, αMeF6, 4Pal10, αMeF13, Orn16, K17(Z1), Aib20, D-Glu24, αMeY25, K31(Z1), C-term NH2; Z1=AEEA2-(γ-Glu)-CO-(CH2)12-CO2H
- Ki (human GLP-1 receptor): 6.1 nM
- Ki (human GIP receptor): 0.0683 nM

B5: Y-Aib-EGT-αMeF(2F)-TSD-4Pal-SI-αMeL-LD-Orn-K((2-[2-(2-Amino-ethoxy)-ethoxy]-acetyl)2-(γ-Glu)-CO-(CH2)12-CO2H)AQ-Aib-E-(3ClPhe)-I-(D-Glu)-αMeY-LIEGGK((2-[2-(2-Am … (peptide)
peptide: B1 peptide with F22X
modifications: Aib2, αMeF(2F)6, 4Pal10, αMeL13, Orn16, K17(Z1), Aib20, 3ClPhe22, D-Glu24, αMeY25, K31(Z1), C-term NH2; Z1=AEEA2-(γ-Glu)-CO-(CH2)12-CO2H
- Ki (human GLP-1 receptor): 1.59 nM
- Ki (human GIP receptor): 0.132 nM

B6: Y-Aib-EGT-αMeF(2F)-TSDK((2-[2-(2-Amino-ethoxy)-ethoxy]-acetyl)2-(γ-Glu)-CO-(CH2)12-CO2H)SI-αMeL-LD-Orn-K((2-[2-(2-Amino-ethoxy)-ethoxy]-acetyl)2-(γ-Glu)-CO-(CH2 … (peptide)
peptide: B1 peptide with X10K, K31P
modifications: Aib2, αMeF(2F)6, K10(Z1), αMeL13, Orn16, K17(Z1), Aib20, D-Glu24, αMeY25, C-term NH2; Z1=AEEA2-(γ-Glu)-CO-(CH2)12-CO2H
- Ki (human GLP-1 receptor): 6.48 nM
- Ki (human GIP receptor): 0.378 nM

B7: Y-Aib-EGT-αMeF-TSD-4Pal-SI-αMeL-LD-Orn-K((2-[2-(2-Amino-ethoxy)-ethoxy]-acetyl)2-(γ-Glu)-CO-(CH2)12-CO2H)AQ-Aib-EFI-(D-Glu)-αMeF-LIEGGK((2-[2-(2-Amino-ethoxy)-e … (peptide)
peptide: B1 peptide
modifications: Aib2, αMeF6, 4Pal10, αMeL13, Orn16, K17(Z1), Aib20, D-Glu24, αMeF25, K31(Z1), C-term NH2; Z1=AEEA2-(γ-Glu)-CO-(CH2)12-CO2H
- Ki (human GLP-1 receptor): 3.67 nM
- Ki (human GIP receptor): 0.0621 nM

B8: Y-Aib-EGT-αMeF-TSD-αMeF-SI-αMeL-LD-Orn-K((2-[2-(2-Amino-ethoxy)-ethoxy]-acetyl)2-(γ-Glu)-CO-(CH2)12-CO2H)AQ-Aib-EFI-(D-Glu)-αMeY-LIEGGK((2-[2-(2-Amino-ethoxy)-e … (peptide)
peptide: B1 peptide
modifications: Aib2, αMeF6, αMeF10, αMeL13, Orn16, K17(Z1), Aib20, D-Glu24, αMeY25, K31(Z1), C-term NH2; Z1=AEEA2-(γ-Glu)-CO-(CH2)12-CO2H
- Ki (human GLP-1 receptor): 6.9 nM
- Ki (human GIP receptor): 0.0891 nM

B9: Y-Aib-EGT-αMeF(2F)-TSD-4Pal-SI-αMeL-LD-Orn-K((2-[2-(2-Amino-ethoxy)-ethoxy]-acetyl)2-(γ-Glu)-(10-(4-carboxyphenoxy)decanoyl))AQ-Aib-EFIK((2-[2-(2-Amino-ethoxy)- … (peptide)
peptide: B1 peptide with X24K, K31P
modifications: Aib2, αMeF(2F)6, 4Pal10, αMeL13, Orn16, K17(Z1), Aib20, K24(Z1), αMeY25, C-term NH2; Z1=AEEA2-(γ-Glu)-(10-(4-carboxyphenoxy)decanoyl)
- Ki (human GLP-1 receptor): 0.777 nM
- Ki (human GIP receptor): 0.0314 nM
